T1: recombinant human GPC2-His protein (Homo sapiens, UniProt Q8N158)
T1 construct: His
T1 sequence (Q8N158 24-554): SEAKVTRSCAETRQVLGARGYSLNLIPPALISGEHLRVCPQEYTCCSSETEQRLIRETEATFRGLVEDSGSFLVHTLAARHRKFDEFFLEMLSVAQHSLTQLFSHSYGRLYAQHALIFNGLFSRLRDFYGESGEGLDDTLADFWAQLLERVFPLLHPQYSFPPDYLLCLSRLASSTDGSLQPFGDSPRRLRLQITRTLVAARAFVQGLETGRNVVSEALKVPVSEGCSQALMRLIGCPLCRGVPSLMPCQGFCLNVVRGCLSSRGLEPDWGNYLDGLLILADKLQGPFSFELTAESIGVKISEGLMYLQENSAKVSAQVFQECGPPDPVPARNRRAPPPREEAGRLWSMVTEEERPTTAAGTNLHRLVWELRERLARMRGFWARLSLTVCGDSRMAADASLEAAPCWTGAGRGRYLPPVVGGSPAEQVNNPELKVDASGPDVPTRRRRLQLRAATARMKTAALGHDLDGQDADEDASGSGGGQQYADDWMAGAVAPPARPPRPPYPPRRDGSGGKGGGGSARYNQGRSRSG


What was measured:
[1] = test system: human neuroblastoma cell line SH-SY5Y; test: In vitro cytotoxicity assay (LDH), SH-SY5Y; format: cell-based; details: second group, FIG. 6C
Procedure: The pre-activated T cells were transduced with lentivirus stock in the presence of […] polybrene and 300 IU/mL IL-2. T cells and lentivirus were centrifuged at 1000 g, 32° C. for 1 h and placed in humidified cell culture incubator for transgene expression under suitable conditions. On day 5 or day 7 or day 10 post-transduction, transduced T cells were harvested and co-incubated with tumor cells at an effector (CAR T) to target cell ratio of 10:1 or 5:1 or 2:1 or 1:1 or 0.2:1 for 20 hours. Target cells were human neuroblastoma cell line SH-SY5Y (ATCC, #CRL-2266), human neuroblastoma cell line IMR-32 cells (ATCC, #CCL-127), or human epidermoid carcinoma cell line A-431 (ATCC, #CRL-1555). To assay the cytotoxicity of CAR T cells on tumor cells, the Cytotoxicity Detection Kit (LDH) (Roche, #11644793001) assay reagents were prepared according to manufacturer's protocol. Reaction mix was added to the cell-free supernatant of each sample to detect the LDH released from cells. Optical densities at OD492 nm and OD650 nm were measured by PHERStar Microplate Reader. Baseline LDH released from the target cell in the absence of effector cells and effector cell in the absence of target cells were subtracted from the total LDH amount. The target maximum release was obtained by adding Triton-X100 at a final concentration of 1% to target cells in the absence of effector cells at the time when the cytotoxicity assays initiated. Supernatant from target cells in the absence of effector cells was used for target minimum release. The specific cytotoxicity was calculated by the formula: % Target cell lysis=100*[(OD CAR T cell+Target cell)−(OD CAR T cell)−(OD Target cell)+(OD Buffer background)]/(OD Target Maximum release−OD Target Minimum release).
On day 5 or day 8 or day 10 post-transduction, transduced T cells were harvested and co-incubated with tumor cells at an effector (CAR T) to target cell ratio of 10:1 or 1:1 or 0.2:1 for 20 hours. To assay the cytotoxicity of CAR T cells on tumor cells, the Cytotoxicity Detection Kit (LDH) (Roche, #11644793001) was added to the culture supernatant and the specific cytotoxicity for each CAR T cell construct was measured as described in Example 6.

[2] = target: T1, recombinant human GPC2-His protein; test: SPR (Biacore T200) affinity of anti-GPC2 VHH-hIgG1Fc; details: 1:1 binding model
Procedure: Each of the exemplary anti-GPC2 VHH sequences was cloned into a vector comprising a human IgG1Fc fragment (hlgG1Fc) sequence to facilitate recombinant expression of anti-GPC2 VHH-hlgG1Fc. Recombinant proteins were obtained and purified for SPR assays. The affinity of each anti-GPC2 VHH-hIgG1Fc for GPC2 was determined by SPR using a BIACORE® T200 analytical system (GE Healthcare). Briefly, recombinant human GPC2-His protein was covalently coupled to a CM5(s) sensor chip using an amine coupling kit. Exemplary VHH-hIgG1Fc proteins were serially diluted in running buffer (10 mM HEPES, 150 mM NaCl, 3 mM EDTA, 0.05% Tween-20, pH 7.4) and injected over the chip cell at a flowrate of 100 μL/min for 100 seconds followed by buffer-only injection for 300 seconds to allow for antibody dissociation. The dissociation […] (KD) were determined using the BIACORE® T200 evaluation software version 3.0 (Langmuir binding, local fit, 1:1 binding model).

Molecule	cytotoxicity against SH-SY5Y compared with CAS70950-BBz, CAS72052-BBz and CAS72669-BBz [1]	ka [2] [M⁻¹ s⁻¹]	kd [2] [s⁻¹]
CAS77916-BBz: camel VHH anti-GPC2 CAR (4-1BB, CD3ζ), SEQ ID NO: 207; tested as CAR T cells (protein, expressed in CAR T cells; CAS77916-BBz) MALPVTALLLPLALLLHAARPQVHLMESGGGSVQAGGSLRLSCATSGYTSSWNCMGWFRQPPGKEREGVATIANRGHSTYYADSVKGRFTISQGNAKNTVYLQMNSLKPEDTAMYYCATDTWACVGISTDFEYWGQGTQVTVSSTTTPAPRPPTPAPTIASQPLSLRPEACRPAAGGAVHTRGLDFACDIYIWAPLAGTCGVLLLSLVITLYCKRGRKKLLYIFKQPFMRPVQTTQEEDGCSCRFPEEEEGGCELRVKFSRSADAPAYKQGQNQLYNELNLGRREEYDVLDKRRGRDPEMGGKPRRKNPQEGLYNELQKDKMAEAYSEIGMKGERRRGKGHDGLYQGLSTATKDTYDALHMQALPPR	better cytotoxicity		
CAS78117-BBz: camel VHH anti-GPC2 CAR (4-1BB, CD3ζ), SEQ ID NO: 212; tested as CAR T cells (protein, expressed in CAR T cells; CAS78117-BBz) MALPVTALLLPLALLLHAARPQVKLVESGGGSVQAGGALRLSCIVRRYTYATYSMAWFRQSPGKEREGVAGLDSVGATGYAESVKGRFTISKDNAKNILYLQMNSLKPEDTAMYYCVVDPASAKVTYGSWSTPSYAYWGQGTQVTVSSTTTPAPRPPTPAPTIASQPLSLRPEACRPAAGGAVHTRGLDFACDIYIWAPLAGTCGVLLLSLVITLYCKRGRKKLLYIFKQPFMRPVQTTQEEDGCSCRFPEEEEGGCELRVKFSRSADAPAYKQGQNQLYNELNLGRREEYDVLDKRRGRDPEMGGKPRRKNPQEGLYNELQKDKMAEAYSEIGMKGERRRGKGHDGLYQGLSTATKDTYDALHMQALPPR	better cytotoxicity		
CAS77932-BBz: camel VHH anti-GPC2 CAR (4-1BB, CD3ζ), SEQ ID NO: 208; tested as CAR T cells (protein, expressed in CAR T cells; CAS77932-BBz) MALPVTALLLPLALLLHAARPQVQLKESGGGSVQAGGSLRLSCAVSGYWYSVAWMGWFRQTPGKEREGVAAVLNGGGRRYYADSVKGRFTISQDNSKNTLYLQMNSLKPEDTAMYYCAAGNGVGHPLGPSEYNYWGQGTQVTVSSTTTPAPRPPTPAPTIASQPLSLRPEACRPAAGGAVHTRGLDFACDIYIWAPLAGTCGVLLLSLVITLYCKRGRKKLLYIFKQPFMRPVQTTQEEDGCSCRFPEEEEGGCELRVKFSRSADAPAYKQGQNQLYNELNLGRREEYDVLDKRRGRDPEMGGKPRRKNPQEGLYNELQKDKMAEAYSEIGMKGERRRGKGHDGLYQGLSTATKDTYDALHMQALPPR	better cytotoxicity		
CAS77986-BBz: camel VHH anti-GPC2 CAR (4-1BB, CD3ζ), SEQ ID NO: 211; tested as CAR T cells (protein, expressed in CAR T cells; CAS77986-BBz) MALPVTALLLPLALLLHAARPQVQLVESGGGSVQAGGSLRLSCAASASGYTYSSDSMAWFRQAPGKEREGVAGISTGGRSTYYADSVKGRFTISQDNAKTTVYLHMNSLKPEDTAMYYCAADGPSMTAIQALGDLYPVDFAWWGQGTQVTVSSTTTPAPRPPTPAPTIASQPLSLRPEACRPAAGGAVHTRGLDFACDIYIWAPLAGTCGVLLLSLVITLYCKRGRKKLLYIFKQPFMRPVQTTQEEDGCSCRFPEEEEGGCELRVKFSRSADAPAYKQGQNQLYNELNLGRREEYDVLDKRRGRDPEMGGKPRRKNPQEGLYNELQKDKMAEAYSEIGMKGERRRGKGHDGLYQGLSTATKDTYDALHMQALPPR	better cytotoxicity		
CAS79101-BBz: camel VHH anti-GPC2 CAR (4-1BB, CD3ζ), SEQ ID NO: 215; tested as CAR T cells (protein, expressed in CAR T cells; CAS79101-BBz) MALPVTALLLPLALLLHAARPQVQLVESGGGSVQAGGSLRLSCAASGDTYSNYCMGWFRQAPGKEREEVAAIDSDGSRRYPDSVKGRFTISKDNAKKILYLQMNSLKPEDTAMYFCATDPKVACARVVEYGGGWYRWGQGTQVTVSSTTTPAPRPPTPAPTIASQPLSLRPEACRPAAGGAVHTRGLDFACDIYIWAPLAGTCGVLLLSLVITLYCKRGRKKLLYIFKQPFMRPVQTTQEEDGCSCRFPEEEEGGCELRVKFSRSADAPAYKQGQNQLYNELNLGRREEYDVLDKRRGRDPEMGGKPRRKNPQEGLYNELQKDKMAEAYSEIGMKGERRRGKGHDGLYQGLSTATKDTYDALHMQALPPR	better cytotoxicity		
CAS79236-BBz: camel VHH anti-GPC2 CAR (4-1BB, CD3ζ), SEQ ID NO: 216; tested as CAR T cells (protein, expressed in CAR T cells; CAS79236-BBz) MALPVTALLLPLALLLHAARPQVKLVESGGGSVQAGGSLRLSCAVSGYTYSSYCMAWFRQAPGEEREGVASIDAGGRTTYVDSVKGRFTISKDNAKTSLYLQMNSLKPEDTAMYYCAVDVRTRCGGTWDGEAVYFPYWGQGTQVTVSSTTTPAPRPPTPAPTIASQPLSLRPEACRPAAGGAVHTRGLDFACDIYIWAPLAGTCGVLLLSLVITLYCKRGRKKLLYIFKQPFMRPVQTTQEEDGCSCRFPEEEEGGCELRVKFSRSADAPAYKQGQNQLYNELNLGRREEYDVLDKRRGRDPEMGGKPRRKNPQEGLYNELQKDKMAEAYSEIGMKGERRRGKGHDGLYQGLSTATKDTYDALHMQALPPR	better cytotoxicity		
AS71529VH6-AS70950VH6-hIgG1Fc: tandem AS71529VH6-AS70950VH6 VHH fused to human IgG1Fc fragment (protein, left off: a dimerising Fc or GST, tandem AS71529VH6-AS70950VH6 VHH fused to human IgG1Fc fragment) EVQLVESGGGLVQPGGSLRLSCAVSEYRYSSRYCMGWFRQAPGKGREGVAAIDSNGSADYVDSVKGRFTISKDNSKNTLYLQMNSLRAEDTAMYYCAADHLAYDCYSGATSVFRYWGQGTLVTVSSGGGGSGGGGSGGGGSEVQLVESGGGLVQPGGSLRLSCAISEFTYKNTCVGWFRQAPGKGREGVAAIDSDGNTNYVDSVKGRFTISQDNSKNTVYLQMNSLRAEDTAMYYCAAGAYCGRLLLWIGNYAYWGQGTLVTVSS		320000	6.1e-05
AS72669VH6-hIgG1Fc: AS72669VH6 VHH fused to human IgG1Fc fragment (protein, left off: a dimerising Fc or GST, AS72669VH6 VHH fused to human IgG1Fc fragment) QVQLVESGGGVVQPGGSLRLSCAASRFTYSSYCMGWIRQAPGKGREGVAIFYTGGGRTYYADSVKGRFTISQDNSKNTLYLQMNSLRAEDTAVYYCVAGFYCSGGYWEGDFGYWGQGTLVTVSS		520000	7.7e-05
